Assay [1] addresses Ded1p (wild type, N-terminal His6-tag) (S. cerevisiae) (UniProt P06634). Put plainly: cross-linking; formaldehyde 1% (v/v), 30 min, room temperature; Ded1p 0.3 µM, eIF4A 2 µM or as indicated, RNA 2 µM (16 bp, 25 nt 3'-overhang), 0.5 mM ADPNP-MgCl2, unwinding buffer; Western blot with α-Ded1p.
For assay [2], the target named is T1, Ded1p-eIF4A-eIF4G (Saccharomyces cerevisiae, UniProt P06634).
T1 construct: gene DED1; His6-Ded1p, His6-eIF4A, GST-S-tag-eIF4G1-His; eIF4G preparation contains eIF4E; with ATP-dependent RNA helicase eIF4A; Eukaryotic initiation factor 4F subunit p150; Eukaryotic translation initiation factor 4E
T1 sequence (P06634 2-604, one chain of several): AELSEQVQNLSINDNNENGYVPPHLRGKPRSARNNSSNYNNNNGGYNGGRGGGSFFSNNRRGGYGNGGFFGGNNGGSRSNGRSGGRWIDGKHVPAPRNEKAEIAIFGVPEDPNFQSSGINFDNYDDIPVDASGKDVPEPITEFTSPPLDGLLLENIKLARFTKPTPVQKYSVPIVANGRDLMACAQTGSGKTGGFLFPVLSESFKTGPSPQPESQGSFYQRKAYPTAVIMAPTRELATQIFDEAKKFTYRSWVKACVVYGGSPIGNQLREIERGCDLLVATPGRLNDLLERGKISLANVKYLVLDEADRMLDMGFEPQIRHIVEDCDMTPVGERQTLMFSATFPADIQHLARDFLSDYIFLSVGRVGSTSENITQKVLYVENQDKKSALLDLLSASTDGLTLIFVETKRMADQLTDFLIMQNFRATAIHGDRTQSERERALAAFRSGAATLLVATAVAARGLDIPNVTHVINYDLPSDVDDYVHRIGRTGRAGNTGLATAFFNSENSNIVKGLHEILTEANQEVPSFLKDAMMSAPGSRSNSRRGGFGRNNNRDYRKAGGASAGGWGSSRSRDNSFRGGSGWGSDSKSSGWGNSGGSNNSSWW
T1 sequence (P39935 whole entry partner, one chain of several): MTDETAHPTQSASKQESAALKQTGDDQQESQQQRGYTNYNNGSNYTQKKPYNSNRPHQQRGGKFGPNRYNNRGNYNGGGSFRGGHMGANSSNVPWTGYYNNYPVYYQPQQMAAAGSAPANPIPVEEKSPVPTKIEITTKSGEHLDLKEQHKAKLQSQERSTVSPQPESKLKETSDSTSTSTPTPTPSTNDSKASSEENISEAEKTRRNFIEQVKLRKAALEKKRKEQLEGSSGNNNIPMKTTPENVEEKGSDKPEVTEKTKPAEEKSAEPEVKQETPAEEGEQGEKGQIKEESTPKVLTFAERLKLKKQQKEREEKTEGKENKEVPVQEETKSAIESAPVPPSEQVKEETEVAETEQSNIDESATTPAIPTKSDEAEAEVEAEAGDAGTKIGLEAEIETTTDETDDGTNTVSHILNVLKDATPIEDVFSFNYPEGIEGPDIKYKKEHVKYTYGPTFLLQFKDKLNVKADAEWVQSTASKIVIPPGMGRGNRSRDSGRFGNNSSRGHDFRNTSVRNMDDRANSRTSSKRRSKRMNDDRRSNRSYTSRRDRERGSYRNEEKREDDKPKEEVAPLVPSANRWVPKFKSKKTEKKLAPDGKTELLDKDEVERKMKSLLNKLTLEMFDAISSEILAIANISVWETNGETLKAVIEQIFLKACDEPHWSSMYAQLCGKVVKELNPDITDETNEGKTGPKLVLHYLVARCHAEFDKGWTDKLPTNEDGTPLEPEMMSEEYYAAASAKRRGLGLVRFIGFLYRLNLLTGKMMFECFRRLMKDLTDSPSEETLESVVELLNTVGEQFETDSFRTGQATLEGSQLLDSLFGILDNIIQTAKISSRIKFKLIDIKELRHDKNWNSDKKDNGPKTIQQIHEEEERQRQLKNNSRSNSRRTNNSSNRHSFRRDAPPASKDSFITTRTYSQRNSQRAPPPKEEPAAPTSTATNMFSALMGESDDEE
Put plainly: global fit of thermodynamic model to RNA unwinding data. It is filed as biochemical. Conditions: unwinding reactions, RNA 16 bp with 25 nt 3' overhang; fitted with energy-conservation constraints; RNA-bound complex; some ATP constants given only as limits.

Assay [3] concerns the target eIF4G-eIF4E complex (Saccharomyces cerevisiae) (UniProt P39935). Particulars: cited from earlier work.
Assay [4] concerns the target T2, eIF4A (S. cerevisiae) (UniProt P10081).
T2 sequence: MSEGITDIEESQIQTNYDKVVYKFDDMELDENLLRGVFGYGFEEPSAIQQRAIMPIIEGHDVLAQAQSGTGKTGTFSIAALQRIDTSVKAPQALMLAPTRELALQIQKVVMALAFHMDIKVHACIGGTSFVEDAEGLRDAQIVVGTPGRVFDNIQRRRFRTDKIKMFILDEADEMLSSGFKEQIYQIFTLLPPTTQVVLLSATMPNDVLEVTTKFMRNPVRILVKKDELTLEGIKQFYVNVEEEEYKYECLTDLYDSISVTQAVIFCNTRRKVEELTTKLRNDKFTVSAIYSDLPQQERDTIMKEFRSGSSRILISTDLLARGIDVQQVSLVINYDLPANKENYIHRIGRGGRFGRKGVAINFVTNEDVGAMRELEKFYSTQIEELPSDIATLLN
Put plainly: global fit of RNA unwinding time courses to a thermodynamic model; K1/2 of a binding step calculated with the model of Figure 4A; RNA bound to the target before the step, ATP bound to Ded1p and to eIF4A.

Assay [5] addresses T2, eIF4A (S. cerevisiae). Kind of assay: global fit of RNA unwinding time courses to a thermodynamic model; K1/2 of a binding step calculated with the model of Figure 4A; step without RNA, ATP bound to Ded1p and to eIF4A.
Assay [6] has as its target T2, eIF4A (S. cerevisiae). Kind of assay: global fit of RNA unwinding time courses to a thermodynamic model; K1/2 of a binding step calculated with the model of Figure 4A; step without RNA, ATP bound to Ded1p.
In assay [7] the target is T2, eIF4A (S. cerevisiae). Put plainly: global fit of RNA unwinding time courses to a thermodynamic model; K1/2 of a binding step calculated with the model of Figure 4A; step without RNA, ATP bound to eIF4A.
The target in assay [8] is T2, eIF4A (S. cerevisiae). Put plainly: global fit of RNA unwinding time courses to a thermodynamic model; K1/2 of a binding step calculated with the model of Figure 4A; RNA bound to the binder before the step, ATP bound to Ded1p.
The target in assay [9] is T2, eIF4A (S. cerevisiae). Kind of assay: global fit of RNA unwinding time courses to a thermodynamic model; K1/2 of a binding step calculated with the model of Figure 4A; RNA bound to the target before the step, no ATP.
For assay [10], the target named is T2, eIF4A (S. cerevisiae). Put plainly: global fit of RNA unwinding time courses to a thermodynamic model; K1/2 of a binding step calculated with the model of Figure 4A; RNA bound to the binder before the step, ATP bound to eIF4A.
Assay [11] has as its target T2, eIF4A (S. cerevisiae). Kind of assay: global fit of RNA unwinding time courses to a thermodynamic model; K1/2 of a binding step calculated with the model of Figure 4A; RNA bound to the binder before the step, ATP bound to Ded1p and to eIF4A.
Assay [12] has as its target T2, eIF4A (S. cerevisiae). Put plainly: global fit of RNA unwinding time courses to a thermodynamic model; K1/2 of a binding step calculated with the model of Figure 4A; RNA bound to the target before the step, ATP bound to Ded1p.
Assay [13] concerns the target T2, eIF4A (S. cerevisiae). Kind of assay: global fit of RNA unwinding time courses to a thermodynamic model; K1/2 of a binding step calculated with the model of Figure 4A; RNA bound to the target before the step, ATP bound to eIF4A.
Assay [14] addresses T2, eIF4A (S. cerevisiae). Kind of assay: global fit of RNA unwinding time courses to a thermodynamic model; K1/2 of a binding step calculated with the model of Figure 4A (Kintek Global Explorer; 16 bp duplex, 25 nt 3' overhang); step without RNA and without ATP.
In assay [15] the target is T2, eIF4A (S. cerevisiae). Put plainly: global fit of RNA unwinding time courses to a thermodynamic model; K1/2 of a binding step calculated with the model of Figure 4A; RNA bound to the binder before the step, no ATP.

Ded1p, sequence (P06634 whole entry): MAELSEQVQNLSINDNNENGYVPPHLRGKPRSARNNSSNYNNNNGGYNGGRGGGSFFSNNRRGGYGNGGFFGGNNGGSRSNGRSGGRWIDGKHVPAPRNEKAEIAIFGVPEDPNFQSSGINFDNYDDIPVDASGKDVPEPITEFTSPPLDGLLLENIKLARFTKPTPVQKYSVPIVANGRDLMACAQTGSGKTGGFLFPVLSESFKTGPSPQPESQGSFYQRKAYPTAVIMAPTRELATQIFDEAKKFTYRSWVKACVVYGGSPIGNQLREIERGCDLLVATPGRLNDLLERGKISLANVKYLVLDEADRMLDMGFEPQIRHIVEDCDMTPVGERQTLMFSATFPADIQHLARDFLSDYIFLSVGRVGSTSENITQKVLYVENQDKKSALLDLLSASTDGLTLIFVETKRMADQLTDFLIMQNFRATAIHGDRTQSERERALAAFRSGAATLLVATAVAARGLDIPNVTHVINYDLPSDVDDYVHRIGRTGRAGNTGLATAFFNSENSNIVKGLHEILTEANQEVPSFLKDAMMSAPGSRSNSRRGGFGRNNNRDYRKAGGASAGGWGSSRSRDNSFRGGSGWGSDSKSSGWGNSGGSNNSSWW
eIF4G-eIF4E complex (Saccharomyces cerevisiae), sequence (P39935 whole entry, chain 1 of 2): as the sequence (P39935 whole entry partner, one chain of several) above
eIF4G-eIF4E complex (Saccharomyces cerevisiae), sequence (P07260 whole entry, chain 2 of 2, further chain): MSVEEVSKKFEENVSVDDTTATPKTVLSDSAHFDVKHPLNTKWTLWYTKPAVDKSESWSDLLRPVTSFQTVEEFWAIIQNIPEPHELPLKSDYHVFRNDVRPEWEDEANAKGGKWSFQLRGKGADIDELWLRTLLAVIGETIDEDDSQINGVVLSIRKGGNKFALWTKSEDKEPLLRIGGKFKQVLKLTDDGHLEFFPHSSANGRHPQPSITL
Ded1p (wild type, N-terminal His6-tag), sequence (P06634 whole entry): as the sequence (P06634 whole entry) above

With “Ded1p (wild type, N-terminal His6-tag) (from UniProt P06634 1-604) (enzyme; other documents disagree on this pair)”, in assay [1], the stoichiometry N is 3.

Regarding `Nc1ncnc2c1ncn2[C@@H]1O[C@H](COP(=O)(O)OP(=O)(O)OP(=O)(O)O)[C@@H](O)[C@H]1O` [ATP], the K1/2 entry in assay [2] was “ATP binding to Ded1p-eIF4G-eIF4A-RNA complex”.

Consider eIF4A (from UniProt P10081), for which, in assay [3], the Kd was < 30 nM.

As for “Ded1p (from UniProt P06634 1-604) (enzyme; other documents disagree on this pair)”, the Kd in assay [4] is 89 nM; in assay [5], 800 nM; in [6], 800 nM; in assay [7], 800 nM; in assay [8], 710 nM; in [9], 45 nM. Moreover, the dissociation constant (Kd) in assay [10] is 270 nM; in [11] it was 710 nM; in assay [12], 89 nM; in assay [13], 45 nM; in [14] it was 800 nM; in assay [15] it was 270 nM.

The term stoichiometry N denotes the number of molecules, sites or subunits per partner or assembly. In general, Kd refers to the equilibrium constant for the complex coming apart.
